Measured values published in patent US20200024360A1 (Janssen / Centocor, published 2020).
Like-named read-outs stand apart in the source and are kept apart here.

Key:
[1] = target: T1, recombinant human PSMA extracellular domain (ECD) protein (human, UniProt Q04609 44-750); experiment: SPR ProteOn
T1 construct: also called human PSMA ECD

[2] = target: T2, recombinant cynomolgous monkey PSMA extracellular domain (ECD) protein (Macaca fascicularis, UniProt Q04609 48-750 (human entry), biotin on the Avi tag); experiment: SPR ProteOn
T2 construct: also called cyno PSMA ECD; PSMG1
T2 chain: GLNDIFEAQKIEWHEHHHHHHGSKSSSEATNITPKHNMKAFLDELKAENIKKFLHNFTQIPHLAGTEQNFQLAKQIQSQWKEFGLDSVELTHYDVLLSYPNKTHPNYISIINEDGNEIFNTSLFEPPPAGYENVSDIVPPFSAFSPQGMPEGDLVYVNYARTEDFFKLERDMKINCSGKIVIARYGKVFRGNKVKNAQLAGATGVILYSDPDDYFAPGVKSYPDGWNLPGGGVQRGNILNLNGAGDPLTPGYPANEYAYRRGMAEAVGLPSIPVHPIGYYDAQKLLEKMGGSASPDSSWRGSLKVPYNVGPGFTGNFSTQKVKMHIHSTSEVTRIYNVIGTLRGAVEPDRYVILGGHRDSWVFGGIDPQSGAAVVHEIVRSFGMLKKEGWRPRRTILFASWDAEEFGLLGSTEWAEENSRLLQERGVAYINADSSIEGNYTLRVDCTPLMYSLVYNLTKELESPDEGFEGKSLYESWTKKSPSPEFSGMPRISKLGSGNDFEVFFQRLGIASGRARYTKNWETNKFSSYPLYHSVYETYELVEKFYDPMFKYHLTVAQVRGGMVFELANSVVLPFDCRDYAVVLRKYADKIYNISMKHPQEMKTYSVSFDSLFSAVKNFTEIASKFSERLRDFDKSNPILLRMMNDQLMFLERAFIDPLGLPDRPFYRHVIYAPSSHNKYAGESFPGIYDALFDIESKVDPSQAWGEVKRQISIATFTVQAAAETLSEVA

[3] = target: T2, recombinant cynomolgous monkey PSMA …; experiment: SPR ProteOn, bsAb captured by anti-Fc
[4] = target: T3, recombinant chimpanzee PSMA extracellular domain (ECD) protein (Pan troglodytes, UniProt Q04609 44-750 (human entry)); experiment: SPR ProteOn, bsAb captured by anti-Fc
T3 construct: also called Chimp PSMA ECD; PSMG8
T3 chain: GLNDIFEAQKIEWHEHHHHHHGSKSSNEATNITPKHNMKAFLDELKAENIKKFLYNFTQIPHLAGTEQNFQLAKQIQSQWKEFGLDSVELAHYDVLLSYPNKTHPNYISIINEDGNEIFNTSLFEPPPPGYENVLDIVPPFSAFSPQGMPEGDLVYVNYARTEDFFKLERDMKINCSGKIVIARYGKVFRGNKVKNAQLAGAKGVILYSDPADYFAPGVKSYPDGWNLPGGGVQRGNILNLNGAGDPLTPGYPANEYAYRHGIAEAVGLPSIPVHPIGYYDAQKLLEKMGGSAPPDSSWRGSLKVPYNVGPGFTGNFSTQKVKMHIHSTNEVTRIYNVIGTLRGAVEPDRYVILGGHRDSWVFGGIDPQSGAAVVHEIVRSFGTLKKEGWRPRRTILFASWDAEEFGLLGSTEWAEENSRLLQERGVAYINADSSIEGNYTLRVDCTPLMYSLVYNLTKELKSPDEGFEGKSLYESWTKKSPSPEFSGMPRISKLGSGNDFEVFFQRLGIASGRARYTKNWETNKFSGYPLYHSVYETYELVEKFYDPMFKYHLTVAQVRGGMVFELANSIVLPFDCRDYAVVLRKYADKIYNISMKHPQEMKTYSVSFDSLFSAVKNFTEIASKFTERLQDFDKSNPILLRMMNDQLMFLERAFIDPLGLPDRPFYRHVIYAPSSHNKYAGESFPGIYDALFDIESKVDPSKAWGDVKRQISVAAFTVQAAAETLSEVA
Method: The interactions of PSMA×CD3 bispecific mAbs with target (recombinant Chimp, PSMA) were studied by Surface Plasmon Resonance (SPR) using a ProteOn XPR36 system (BioRad). […] Approximately 4400 RU (response units) of anti-Human IgG Fc antibodies were immobilized. The kinetic experiments were performed at 25° C. in running buffer (DPBS+0.03% P20+100 μg/ml BSA). […] The association phase was monitored for 3 minutes at 50 μL/min, then followed by 15 minutes of buffer flow (dissociation phase). The chip surface was regenerated with two 18 second pulses of 100 mM Phosphoric acid (H₃PO₄, Sigma, cat #7961) at 100 μL/min.
The collected data were processed using ProteOn Manager software. First, the data was corrected for background using inter-spots. Then, double reference subtraction of the data was performed by using the buffer injection for analyte injections. The kinetic analysis of the data was performed using a Langmuir 1:1 binding model.

[5] = target: T3, recombinant chimpanzee PSMA …; experiment: SPR ProteOn
[6] = target: T1, recombinant human PSMA extracellular …; experiment: SPR ProteOn; remark: listed apart in the source
[7] = target: T2, recombinant cynomolgous monkey PSMA …; experiment: SPR ProteOn

B1: PS3B27 (bispecific antibody, human IgG4 S228P, kappa, lambda, F234A L235A)
heavy 1: not shown
light 1: not shown
heavy 2: EVQLVESGGGLVQPGGSLRLSCAASGFTFNTYAMNWVRQAPGKGLEWVARIRSKYNNYATYYAASVKGRFTISRDDSKNSLYLQMNSLKTEDTAVYYCARHGNFGNSYVSWFAYWGQGTLVTVSSASTKGPSVFPLAPCSRSTSESTAALGCLVKDYFPEPVTVSWNSGALTSGVHTFPAVLQSSGLYSLSSVVTVPSSSLGTKTYTCNVDHKPSNTKVDKRVESKYGPPCPPCPAPEAAGGPSVFLFPPKPKDTLMISRTPEVTCVVVDVSQEDPEVQFNWYVDGVEVHNAKTKPREEQFNSTYRVVSVLTVLHQDWLNGKEYKCKVSNKGLPSSIEKTISKAKGQPREPQVYTLPPSQEEMTKNQVSLTCLVKGFYPSDIAVEWESNGQPENNYKTTPPVLDSDGSFLLYSKLTVDKSRWQEGNVFSCSVMHEALHNHYTQKSLSLSLGK
light 2: QTVVTQEPSLTVSPGGTVTLTCRSSTGAVTTSNYANWVQQKPGQAPRGLIGGTNKRAPGTPARFSGSLLGGKAALTLSGVQPEDEAEYYCALWYSNLWVFGGGTKLTVLGQPKAAPSVTLFPPSSEELQANKATLVCLISDFYPGAVTVAWKADSSPVKAGVETTTPSKQSNNKYAASSYLSLTPEQWKSHRSYSCQVTHEGSTVEKTVAPTECS
notes: IgG4 PAA; PSMA arm chains first, then CD3 arm (F405L, R409K); also called PSMB127 x CD3B219; PS2B27
B1 gave a Kd [1] of 10.3 nM, a koff [1] of 0.00289 s⁻¹ and a kon [1] of 287000 M⁻¹ s⁻¹. It also gave a Kd [2] of 7 nM, a koff [2] of 0.0011 s⁻¹ and a kon [2] of 159000 M⁻¹ s⁻¹. The Kd [3] was 7 nM, the koff [3] was 0.0011 s⁻¹ and the kon [3] was 159000 M⁻¹ s⁻¹. The Kd [4] was 7.48 nM, the koff [4] was 0.00156 s⁻¹ and the kon [4] was 208000 M⁻¹ s⁻¹. For the same binder, the Kd [5] was 7.48 nM, the Kd [6] was 10.3 nM and the Kd [7] was 7 nM.

B2: PS3B25 (bispecific antibody, human IgG4 S228P, kappa, lambda, F234A L235A)
heavy 1: not shown
light 1: not shown
heavy 2: EVQLVESGGGLVQPGGSLRLSCAASGFTFNTYAMNWVRQAPGKGLEWVARIRSKYNNYATYYAASVKGRFTISRDDSKNSLYLQMNSLKTEDTAVYYCARHGNFGNSYVSWFAYWGQGTLVTVSSASTKGPSVFPLAPCSRSTSESTAALGCLVKDYFPEPVTVSWNSGALTSGVHTFPAVLQSSGLYSLSSVVTVPSSSLGTKTYTCNVDHKPSNTKVDKRVESKYGPPCPPCPAPEAAGGPSVFLFPPKPKDTLMISRTPEVTCVVVDVSQEDPEVQFNWYVDGVEVHNAKTKPREEQFNSTYRVVSVLTVLHQDWLNGKEYKCKVSNKGLPSSIEKTISKAKGQPREPQVYTLPPSQEEMTKNQVSLTCLVKGFYPSDIAVEWESNGQPENNYKTTPPVLDSDGSFLLYSKLTVDKSRWQEGNVFSCSVMHEALHNHYTQKSLSLSLGK
light 2: QTVVTQEPSLTVSPGGTVTLTCRSSTGAVTTSNYANWVQQKPGQAPRGLIGGTNKRAPGTPARFSGSLLGGKAALTLSGVQPEDEAEYYCALWYSNLWVFGGGTKLTVLGQPKAAPSVTLFPPSSEELQANKATLVCLISDFYPGAVTVAWKADSSPVKAGVETTTPSKQSNNKYAASSYLSLTPEQWKSHRSYSCQVTHEGSTVEKTVAPTECS
notes: IgG4 PAA; also called PSMB87 x CD3B219
With B2 the Kd [1] was 5.38 nM, the koff [1] was 0.00101 s⁻¹ and the kon [1] was 188000 M⁻¹ s⁻¹. It also gave a Kd [2] of 81.1 nM, a koff [2] of 0.00797 s⁻¹ and a kon [2] of 98000 M⁻¹ s⁻¹. For the same binder, the Kd [3] was 81.1 nM, the koff [3] was 0.00797 s⁻¹ and the kon [3] was 98000 M⁻¹ s⁻¹. The Kd [4] was 3.54 nM, the koff [4] was 0.00099 s⁻¹ and the kon [4] was 281000 M⁻¹ s⁻¹. The Kd [5] was 3.54 nM, the Kd [6] was 5.38 nM and the Kd [7] was 81.1 nM.
